Source: patent US20060008801A1 (EFFECTOR CELL INSTITUTE, published 2006)

Target: T1, myc-p53 (isotope-labeled myc-fused recombinant p53, made in vitro from pAS2-1-p53) (UniProt P02340 72-390, isotope-labeled)
T1 construct: Control of the coimmunoprecipitation
Assay: coimmunoprecipitation of isotope-labeled recombinant proteins, SDS-PAGE
From the text: In the second test, coding sequences of pAS2-1-CCR2b and pAS2-1-p53 were amplified by PCR using a T7 promoter, a 5′ primer encoding myc epitope: 5′[…] 3′ (SEQ ID NO:44) and a 3′ primer originating in p AS2-1: 5′[…]3′ (SEQ ID NO:45) to express an epitope-tagged protein. Similarly, pACT2-FROUNT was amplified by PCR using a T7 promoter, a 5′ primer encoding HA epitope: 5′[…]3′ (SEQ ID NO:46) and a 3′ primer originating in p ACT2: 3′[…]5′ (SEQ ID NO:47). Then, isotope-labeled recombinant proteins were produced in accordance with user's manual of […] Co-IP Kit (CLONTECH Laboratories, Inc.). By the coimmunoprecipitation method using these recombinant proteins, the specific binding ability between CCR2 and FROUNT was confirmed again (FIG. 2). […] Namely, coprecipitation occurred by using the HA- or Myc-specific antibody in the coexistence of myc-CCR2 and HA-FNT, the coprecipitation disappeared by adding an antigen peptide and no coprecipitation occurred in the case of myc-p53, thereby indicating specific binding ability.

T1 sequence (P02340 72-390): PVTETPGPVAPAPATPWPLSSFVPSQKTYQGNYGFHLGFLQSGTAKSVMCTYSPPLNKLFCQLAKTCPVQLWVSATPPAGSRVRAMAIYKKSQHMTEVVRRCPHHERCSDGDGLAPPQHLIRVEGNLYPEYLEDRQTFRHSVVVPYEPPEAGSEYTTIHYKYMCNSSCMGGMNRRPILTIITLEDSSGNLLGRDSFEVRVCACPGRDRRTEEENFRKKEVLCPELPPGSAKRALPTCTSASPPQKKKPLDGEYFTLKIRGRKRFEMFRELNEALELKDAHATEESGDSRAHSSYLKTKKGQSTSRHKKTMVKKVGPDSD

B1: HA-FNT (isotope-labeled HA-fused recombinant FROUNT protein, clone 19 part, made in vitro from pACT2-FROUNT) (other)
chain: LVSDRFLRDYCERGCFSDLDLIDNLGPAMMLSDRLTFLGKYREFHRMYGEKRFADAASLLLSLMTSRIAPRSFWMTLLTDALPLLEQKQVIFSAEQTYELMRCLEDLTSRRPVHGESDTEQLQDDDIETTKVEMLRLSLARNLARAIIREGSLEGS
modifications: isotope-labeled
notes: Co-IP Kit by PCR from pACT2-FROUNT; also called HA-tagged recombinant FROUNT protein; not shown: vector-encoded residues m
binding result: no binding
